Test results: patent US8436159B2, “Glyphosate resistant class I 5-endolpyruvylshikimate-3-phosphate synthase (EPSPS)” (Monsanto Technology LLC, priority 2003, dated 2013)

Assays:
[1] = biological target: T1, maize (Zea mays) class I EPSPS, wild type (WT), pMON70461, DNA SEQ ID NO:3 (Zea mays, UniProt O24566); assay: EPSPS steady-state kinetics, wild-type maize EPSPS; assay type: biochemical
T1 construct: pMON70461
T1 sequence (O24566 with tags, fused parts or gaps): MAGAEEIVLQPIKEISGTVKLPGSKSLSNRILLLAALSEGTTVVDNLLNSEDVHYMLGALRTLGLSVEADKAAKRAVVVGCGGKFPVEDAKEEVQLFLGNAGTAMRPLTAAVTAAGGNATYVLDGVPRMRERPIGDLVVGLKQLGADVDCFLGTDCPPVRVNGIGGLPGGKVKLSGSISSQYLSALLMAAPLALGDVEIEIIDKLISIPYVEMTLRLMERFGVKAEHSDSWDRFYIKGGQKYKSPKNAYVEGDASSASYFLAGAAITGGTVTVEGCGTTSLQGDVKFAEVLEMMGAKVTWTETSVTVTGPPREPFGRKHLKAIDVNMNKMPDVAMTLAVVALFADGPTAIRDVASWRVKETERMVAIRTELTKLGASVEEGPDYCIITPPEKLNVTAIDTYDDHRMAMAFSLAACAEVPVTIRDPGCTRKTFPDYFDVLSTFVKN
Protocol: The wild type and variant EPSPS coding sequences were cloned into a pET-19b base vector (Novagen, Madison, Wis.). The plant (maize) class I EPSPS variants so created were assigned pMON plasmid numbers (Table 2). The variant EPSPS proteins were purified from the E. coli host using the protocols outlined in the pET system manual, 9th edition (Novagen) or by the following method. A single colony or a few microliters from a glycerol stock was inoculated into 4 mL LB medium containing 0.1 mg/mL carbenicillin antibiotic. The culture was incubated with shaking at 37 C for 4 hours. The cultures were stored at 4° C. overnight. The following morning, 1 mL of the overnight culture was used to inoculate 100 mL of fresh LB medium containing 0.1 mg/mL carbenicillin. The cultures were incubated with shaking at 37 C for 4-5 hours, then the cultures were placed at 4° C. for 5-10 minutes. The cultures were then induced with IPTG (1 mM final concentration) and incubated with shaking at 30 C for 4 hours or 20° C. overnight. The cells were harvested by centrifugation at 7000 rpm for 20 minutes at 4° C. The supernatant was removed and the cells were frozen at −70° C. until further use. The proteins were extracted by resuspending the cell pellet in BugBuster reagent (Novagen) using 5 mL reagent per gram of cells. Benzonase (125 Units) was added to the resuspension and the cell suspension was then incubated on a rotating mixer for 20 minutes at room temperature. The cell debris was removed by centrifugation at 10,000 rpm for 20 minutes at room temperature. The supernatant was passed through a 0.45 μm syringe-end filter and transferred to a fresh tube. A pre-packed columns containing 1.25 mL of His-Bind resin was equilibrated with 10 mL of 5 mM imidazole, 0.5 M NaCl, 20 mM Tris-HCl pH 7.9 (1× Binding Buffer). The column was then loaded with the prepared cell extract. After the cell extract had drained, the column was then washed with 10 mL of 1× Binding Buffer, followed with 10 mL of 60 mM imidazole, 0.5 M NaCl, 20 mM Tris-HCl pH 7.9 (1× Wash Buffer). […]

E. coli EPSPS, native = conditions: read-out: apparent Km for PEP; native enzyme; cited from earlier work
[2] = tested on: E. coli EPSPS variant, alanine for the glycine at position 96 (G96A); conditions: read-out: apparent Km for PEP; glyphosate-resistant isolate; cited from earlier work
[3] = substrate: C=C(OP(=O)(O)O)C(=O)O; assay: EPSPS steady-state kinetics, TIPA variant; assay type: biochemical, maize (Zea mays); conditions: other: pH 7.0, 1 mM shikimate-3-phosphate, Table 2
Excerpt: The double variants of the present invention were made using pMON58452 (FIG. 5) as the template. This pMON58452 EPSPS gene template contains the maize EPSPS double variant T102I, P106T (TIPT) that was constructed by mutagenesis of pMON70467 with the mutagenesis primers mEmut-9-U and mEmut-10-L. The various mutagenesis primer sequences were designed and then were synthesized by Invitrogen Corp., Custom Primers and used in combination in a PCR to create the variant EPSPS coding sequences. The PCR was set up in a 50 μl reaction in the following manner: dH2O 38 μl; 2 mM dNTP 1 μL; 10× buffer 5 μL; pMON58452 1 μL (10 ng); primer-U 2 μL; primer-L 2 μL; pfu Turbo enzyme 1 μL. PCR was carried out on a MJ Research PTC-200 thermal cycler using the following program: Step 1—94° C. for 30 seconds; Step 2—94° C. for 30 seconds; Step 3—55° C. for 1 minute; Step 4—68° C. for 14 minute; Step 5—go to step 2, 16 times; Step 6—End. At the end of the PCR, 1 μl of the restriction enzyme DpnI was added to each 50 μl of PCR reaction and the mixture was incubated at 37° C. for 1 hour. The proline (106) amino acid codon of pMON58452 was substituted in subsequent steps to provide additional variants that include TWO (primer P106G-U, SEQ ID NO:14 and -L, SEQ ID NO:15), TIPA (primer P106A-U, SEQ ID NO:16 and -L, SEQ ID NO:17), TIPV (primer P106V-U, SEQ ID NO:18 and -L, SEQ ID NO:19), TIPL (primer P106L-U, SEQ ID NO:20 and -L, SEQ ID NO:21), TIPI (primer P106I-U, SEQ ID NO:22 and -L, SEQ ID NO:23), TIPM (primer P106M-U, SEQ ID NO:24 and -L, SEQ ID NO:25), and TIPC (primer P106C-U, SEQ ID NO:26 and -L, SEQ ID NO:27). The double variants of the gene encoding the EPSPS protein were generated using the PCR conditions described above.
The wild type and variant EPSPS coding sequences were cloned into a pET-19b base vector (Novagen, Madison, Wis.). […] The variant EPSPS proteins were purified from the E. coli host using the protocols outlined in the pET system manual, 9th edition (Novagen) or by the following method. […]

[4] = substrate: C=C(OP(=O)(O)O)C(=O)O; assay: EPSPS steady-state kinetics, TIPS variant; assay type: biochemical, maize (Zea mays); conditions: other: pH 7.0, 1 mM shikimate-3-phosphate
Excerpt: Mutations were made using plant EPSPS DNA coding sequence template as an example of class I EPSPSs. […] All the variants were made using the PCR-based QuickChange™ Site-directed Mutagenesis Kit (Stratagene, La Jolla, Calif., Cat. No. 200518) following the manufactures instructions. The DNA sequence of each mutagenesis primer was designed, and then ordered from Invitrogen Corp., Custom Primers (Carlsbad, Calif.). Mutagenesis of a maize wild-type DNA molecule (SEQ ID NO:3) encoding the EPSPS enzyme was performed using pMON70461 (FIG. 3) as the template. pMON70461 contains the unmodified wild-type maize EPSPS coding sequence. […] The single EPSPS variants were created by mutagenesis of the maize wild-type EPSPS DNA coding sequence as controls for measuring the efficacy of the double variant EPSPSs.
The wild type and variant EPSPS coding sequences were cloned into a pET-19b base vector (Novagen, Madison, Wis.). […] The variant EPSPS proteins were purified from the E. coli host using the protocols outlined in the pET system manual, 9th edition (Novagen) or by the following method. […] Protein concentration was determined using Bio-Rad protein assay (Bio-Rad Laboratories, CA). […] The samples were read at OD595 after ˜5 minutes using a spectraMAX 250 plate reader (Molecular Devices Corporation, Sunnyvale, Calif.) and compared to the standard curve. […]

[5] = substrate: C=C(OP(=O)(O)O)C(=O)O; assay: EPSPS steady-state kinetics, TIPT variant; assay type: biochemical, maize (Zea mays); conditions: other: pH 7.0, 1 mM shikimate-3-phosphate
Excerpt: (§1) The double variants of the present invention were made using pMON58452 (FIG. 5) as the template. This pMON58452 EPSPS gene template contains the maize EPSPS double variant T102I, P106T (TIPT) that was constructed by mutagenesis of pMON70467 with the mutagenesis primers mEmut-9-U and mEmut-10-L. The various mutagenesis primer sequences were designed and then were synthesized by Invitrogen Corp., Custom Primers and used in combination in a PCR to create the variant EPSPS coding sequences. The PCR was set up in a 50 μl reaction in the following manner: dH2O 38 μl; 2 mM dNTP 1 μL; 10× buffer 5 μL; pMON58452 1 μL (10 ng); primer-U 2 μL; primer-L 2 μL; pfu Turbo enzyme 1 μL. PCR was carried out on a MJ Research PTC-200 thermal cycler using the following program: Step 1—94° C. for 30 seconds; Step 2—94° C. for 30 seconds; Step 3—55° C. for 1 minute; Step 4—68° C. for 14 minute; Step 5—go to step 2, 16 times; Step 6—End. At the end of the PCR, 1 μl of the restriction enzyme DpnI was added to each 50 μl of PCR reaction and the mixture was incubated at 37° C. for 1 hour. […]

[6] = substrate: C=C(OP(=O)(O)O)C(=O)O; assay: EPSPS steady-state kinetics, TIPI variant; assay type: biochemical, maize (Zea mays); conditions: other: pH 7.0, 1 mM shikimate-3-phosphate
Excerpt: as §1

[7] = substrate: C=C(OP(=O)(O)O)C(=O)O; assay: EPSPS steady-state kinetics, TIPV variant; assay type: biochemical, maize (Zea mays); conditions: other: pH 7.0, 1 mM shikimate-3-phosphate
Protocol: (§2) The variant EPSPS proteins were purified from the E. coli host using the protocols outlined in the pET system manual, 9th edition (Novagen) or by the following method. A single colony or a few microliters from a glycerol stock was inoculated into 4 mL LB medium containing 0.1 mg/mL carbenicillin antibiotic. The culture was incubated with shaking at 37 C for 4 hours. The cultures were stored at 4° C. overnight. The following morning, 1 mL of the overnight culture was used to inoculate 100 mL of fresh LB medium containing 0.1 mg/mL carbenicillin. The cultures were incubated with shaking at 37 C for 4-5 hours, then the cultures were placed at 4° C. for 5-10 minutes. The cultures were then induced with IPTG (1 mM final concentration) and incubated with shaking at 30 C for 4 hours or 20° C. overnight. The cells were harvested by centrifugation at 7000 rpm for 20 minutes at 4° C. The supernatant was removed and the cells were frozen at −70° C. until further use. The proteins were extracted by resuspending the cell pellet in BugBuster reagent (Novagen) using 5 mL reagent per gram of cells. Benzonase (125 Units) was added to the resuspension and the cell suspension was then incubated on a rotating mixer for 20 minutes at room temperature. The cell debris was removed by centrifugation at 10,000 rpm for 20 minutes at room temperature. […]

[8] = substrate: C=C(OP(=O)(O)O)C(=O)O; assay: EPSPS steady-state kinetics, TIPM variant; assay type: biochemical, maize (Zea mays); conditions: other: pH 7.0, 1 mM shikimate-3-phosphate
Protocol: as §2

[9] = substrate: C=C(OP(=O)(O)O)C(=O)O; assay: EPSPS steady-state kinetics, TIPG variant; assay type: biochemical, maize (Zea mays); conditions: other: pH 7.0, 1 mM shikimate-3-phosphate
Excerpt: as §1

Molecule: C=C(OP(=O)(O)O)C(=O)O [PEP, phosphoenolpyruvate]
- kcat ([1]; Table 5): 8.8 ± 0.5 s⁻¹
- Km ([1]; pH 7.0, 1 mM shikimate-3-phosphate, Table 2, read-out: Km-PEP): 27 ± 4 µM
- Km (E. coli EPSPS, native): 10 µM
- Km [2]: 220 µM

B1: maize (Zea mays) class I EPSPS variant TIPA (T102I, P106A), pMON42481, ZmTIPA SEQ ID NO:39 (Zea mays; P106A/T102I) (protein)
chain: AGAEEIVLQPIKEISGTVKLPGSKSLSNRILLLAALSEGTTVVDNLLNSEDVHYMLGALRTLGLSVEADKAAKRAVVVGCGGKFPVEDAKEEVQLFLGNAGIAMRALTAAVTAAGGNATYVLDGVPRMRERPIGDLVVGLKQLGADVDCFLGTDCPPVRVNGIGGLPGGKVKLSGSISSQYLSALLMAAPLALGDVEIEIIDKLISIPYVEMTLRLMERFGVKAEHSDSWDRFYIKGGQKYKSPKNAYVEGDASSASYFLAGAAITGGTVTVEGCGTTSLQGDVKFAEVLEMMGAKVTWTETSVTVTGPPREPFGRKHLKAIDVNMNKMPDVAMTLAVVALFADGPTAIRDVASWRVKETERMVAIRTELTKLGASVEEGPDYCIITPPEKLNVTAIDTYDDHRMAMAFSLAACAEVPVTIRDPGCTRKTFPDYFDVLSTFVKN
notes: pMON42481
- Km [3]: 10.2 ± 1.1 µM
- kcat [3]: 2.1 ± 0.1 s⁻¹
- kcat/Km [3]: 0.2 µM^−1s^−1

B2: maize (Zea mays) class I EPSPS variant TIPS (T102I, P106S), pMON70462 (Zea mays; P106S/T102I) (protein)
chain: AGAEEIVLQPIKEISGTVKLPGSKSLSNRILLLAALSEGTTVVDNLLNSEDVHYMLGALRTLGLSVEADKAAKRAVVVGCGGKFPVEDAKEEVQLFLGNAGIAMRSLTAAVTAAGGNATYVLDGVPRMRERPIGDLVVGLKQLGADVDCFLGTDCPPVRVNGIGGLPGGKVKLSGSISSQYLSALLMAAPLALGDVEIEIIDKLISIPYVEMTLRLMERFGVKAEHSDSWDRFYIKGGQKYKSPKNAYVEGDASSASYFLAGAAITGGTVTVEGCGTTSLQGDVKFAEVLEMMGAKVTWTETSVTVTGPPREPFGRKHLKAIDVNMNKMPDVAMTLAVVALFADGPTAIRDVASWRVKETERMVAIRTELTKLGASVEEGPDYCIITPPEKLNVTAIDTYDDHRMAMAFSLAACAEVPVTIRDPGCTRKTFPDYFDVLSTFVKN
notes: pMON70462
- Km [4]: 10.6 ± 1.6 µM

B3: maize (Zea mays) class I EPSPS variant TIPT (T102I, P106T), pMON58452, ZmTIPT SEQ ID NO:38 (Zea mays; P106T/T102I) (protein)
chain: AGAEEIVLQPIKEISGTVKLPGSKSLSNRILLLAALSEGTTVVDNLLNSEDVHYMLGALRTLGLSVEADKAAKRAVVVGCGGKFPVEDAKEEVQLFLGNAGIAMRTLTAAVTAAGGNATYVLDGVPRMRERPIGDLVVGLKQLGADVDCFLGTDCPPVRVNGIGGLPGGKVKLSGSISSQYLSALLMAAPLALGDVEIEIIDKLISIPYVEMTLRLMERFGVKAEHSDSWDRFYIKGGQKYKSPKNAYVEGDASSASYFLAGAAITGGTVTVEGCGTTSLQGDVKFAEVLEMMGAKVTWTETSVTVTGPPREPFGRKHLKAIDVNMNKMPDVAMTLAVVALFADGPTAIRDVASWRVKETERMVAIRTELTKLGASVEEGPDYCIITPPEKLNVTAIDTYDDHRMAMAFSLAACAEVPVTIRDPGCTRKTFPDYFDVLSTFVKN
notes: pMON58452
- Km [5]: 11.2 ± 1.8 µM

B4: maize (Zea mays) class I EPSPS variant TIPI (T102I, P106I), pMON42486 (Zea mays; P106I/T102I) (protein)
chain: AGAEEIVLQPIKEISGTVKLPGSKSLSNRILLLAALSEGTTVVDNLLNSEDVHYMLGALRTLGLSVEADKAAKRAVVVGCGGKFPVEDAKEEVQLFLGNAGIAMRILTAAVTAAGGNATYVLDGVPRMRERPIGDLVVGLKQLGADVDCFLGTDCPPVRVNGIGGLPGGKVKLSGSISSQYLSALLMAAPLALGDVEIEIIDKLISIPYVEMTLRLMERFGVKAEHSDSWDRFYIKGGQKYKSPKNAYVEGDASSASYFLAGAAITGGTVTVEGCGTTSLQGDVKFAEVLEMMGAKVTWTETSVTVTGPPREPFGRKHLKAIDVNMNKMPDVAMTLAVVALFADGPTAIRDVASWRVKETERMVAIRTELTKLGASVEEGPDYCIITPPEKLNVTAIDTYDDHRMAMAFSLAACAEVPVTIRDPGCTRKTFPDYFDVLSTFVKN
notes: pMON42486
- Km [6]: 60.3 ± 2.8 µM

B5: maize (Zea mays) class I EPSPS variant TIPV (T102I, P106V), pMON42482 (Zea mays; P106V/T102I) (protein)
chain: AGAEEIVLQPIKEISGTVKLPGSKSLSNRILLLAALSEGTTVVDNLLNSEDVHYMLGALRTLGLSVEADKAAKRAVVVGCGGKFPVEDAKEEVQLFLGNAGIAMRVLTAAVTAAGGNATYVLDGVPRMRERPIGDLVVGLKQLGADVDCFLGTDCPPVRVNGIGGLPGGKVKLSGSISSQYLSALLMAAPLALGDVEIEIIDKLISIPYVEMTLRLMERFGVKAEHSDSWDRFYIKGGQKYKSPKNAYVEGDASSASYFLAGAAITGGTVTVEGCGTTSLQGDVKFAEVLEMMGAKVTWTETSVTVTGPPREPFGRKHLKAIDVNMNKMPDVAMTLAVVALFADGPTAIRDVASWRVKETERMVAIRTELTKLGASVEEGPDYCIITPPEKLNVTAIDTYDDHRMAMAFSLAACAEVPVTIRDPGCTRKTFPDYFDVLSTFVKN
notes: pMON42482
- Km [7]: 109.3 ± 12.9 µM

B6: maize (Zea mays) class I EPSPS variant TIPM (T102I, P106M), pMON42484 (Zea mays; P106M/T102I) (protein)
chain: AGAEEIVLQPIKEISGTVKLPGSKSLSNRILLLAALSEGTTVVDNLLNSEDVHYMLGALRTLGLSVEADKAAKRAVVVGCGGKFPVEDAKEEVQLFLGNAGIAMRMLTAAVTAAGGNATYVLDGVPRMRERPIGDLVVGLKQLGADVDCFLGTDCPPVRVNGIGGLPGGKVKLSGSISSQYLSALLMAAPLALGDVEIEIIDKLISIPYVEMTLRLMERFGVKAEHSDSWDRFYIKGGQKYKSPKNAYVEGDASSASYFLAGAAITGGTVTVEGCGTTSLQGDVKFAEVLEMMGAKVTWTETSVTVTGPPREPFGRKHLKAIDVNMNKMPDVAMTLAVVALFADGPTAIRDVASWRVKETERMVAIRTELTKLGASVEEGPDYCIITPPEKLNVTAIDTYDDHRMAMAFSLAACAEVPVTIRDPGCTRKTFPDYFDVLSTFVKN
notes: pMON42484
- Km [8]: 143.3 ± 12.6 µM

B7: maize (Zea mays) class I EPSPS variant TIPG (T102I, P106G), pMON42480 (Zea mays; P106G/T102I) (protein)
chain: AGAEEIVLQPIKEISGTVKLPGSKSLSNRILLLAALSEGTTVVDNLLNSEDVHYMLGALRTLGLSVEADKAAKRAVVVGCGGKFPVEDAKEEVQLFLGNAGIAMRGLTAAVTAAGGNATYVLDGVPRMRERPIGDLVVGLKQLGADVDCFLGTDCPPVRVNGIGGLPGGKVKLSGSISSQYLSALLMAAPLALGDVEIEIIDKLISIPYVEMTLRLMERFGVKAEHSDSWDRFYIKGGQKYKSPKNAYVEGDASSASYFLAGAAITGGTVTVEGCGTTSLQGDVKFAEVLEMMGAKVTWTETSVTVTGPPREPFGRKHLKAIDVNMNKMPDVAMTLAVVALFADGPTAIRDVASWRVKETERMVAIRTELTKLGASVEEGPDYCIITPPEKLNVTAIDTYDDHRMAMAFSLAACAEVPVTIRDPGCTRKTFPDYFDVLSTFVKN
notes: pMON42480
- Km [9]: 23.0 ± 3.7 µM
